From the DeepSol protein solubility set

Assay: soluble on expression in E. coli; label from the status in PepcDB or PDB records

Soluble on expression in E. coli, not soluble:
MGSDKIHHHHHHQPIPDMAKAQTAALNSITAADLSAYLHIVASDSMEGRATGEAGQKRTALYLADKFKEFGLSPAVPTAVDKSYFQKFSLVEKTWKEVWLKVGNKQKEFLKDFYAYGDVQLPEATAMKIVCAGYGIEARNYSDYTNLDVKDKGVIIFTGEPFKDSVSLVTKTKQSSTWANDWRAKADLAYKKGAKAVFIIVGNTDTDFETRLAALKDHLNAPSMAFTHKKKASAFFVPASLAAEMLKSTPDALASYKKNRTGTNTPYPFKSAKVIAKAGVTERTVETENVLAVIEGSRYPEEIVVLTAHYDHLGIENGQICYGADDDGSGTVALLEIAQAFSIAKSLGHGPARTILFMPVTGEERGLMGSEYYTDKPVFPLKNTVADLNIDMIGRVDAAHPNVIDENYVYIIGDNRLSSELHTLSENANTGWQGPKIVLDYTYNSFDDPNRFYYRSDHYNFAKNNIPVIFYFSGIHADYHKPTDTVDKIRFDKMAKITQLVFLTAWQLANMDHRLVVDRTE
MGSDKIHHHHHHQQKSADVVENQFTTIKEVPITPVKDQANSGTCWSYSALGFLESEILRMGKPEVDLAEMHSVAQSYKDKGEKYVRMHGKLNFGQGGSFYDVLYVVKHYGVVPQSVMQGLNYGTKKNAHSELADGALAYLKAIVTNPNGKLTPAWKKAYDGIIDSYLGTCPETFTYEGKTYTPKSFAQYLGLNVDDYVSLTSYTHHPFYTQFALEIEDNWRGSLSYNMPINELMETMEYAINNGYSIAWGSDVSEVGFTRDGIGVLADVEGIEAKGSDQDRWVGLSRAEKQAEIIRTVNSADCPEINPTQEFRQKGYDEYSLTDDHGMVIYGIAKNQNGRKFFMVKNSWGETGKYKGIWYASYNFVAGRTMNIIVHKKAIPAAIAKKLGIRQ
MGSDKIHHHHHHQSTGQVTLGVLTDMSSVYADSAGKGSVAAVQLAIEDVGGKALGQPVKLVSADYQMKTDVALSIAREWFDRDGVDAIFDVVNSGTALAINNLVKDKKKLAFITAAAADQIGGTECNGYGIGFLYNFTSIVKTVVQAQLAKGYKTWFLMLPDAAYGDLMNAAIRRELTAGGGQIVGSVRFPFETQDFSSYLLQAKASGAQLIVSTSGGAANINIMKQAREFGLPSKTQKVGGMIDILTDVKSAGLRVMQGQEYATSFYWNMDDRTRAFAKRFYAKMGKMPTNNQAGGYSAALQYLKAVNAIGSKDPQKVFAYLKTIKFDDAVTRHGTLRPGGRLVRDMYLVRAKKPEDQKGDWDYYDVVATIGPEQAFGPLSESRCAMDK
MGSDKIHHHHHHQVSGDVVKIGILNDQSGLYADLAGAGSVQAARMAIEEFGGQVLGKKIELVWADHQNKADIGAGIARAWFDREGVDAIADFSNSSVGFAVQGLANERKKITLVAAGSSDFTGKACSPFSTQWVYNSYSNGYGLARLLASRGMDSVFLLTVDYTFGHAFANDVRKAVTENGGKVLGEVRFPLNSFDLSSYLLQAQASKAKLIVTAAAGSDMTSTVKQANEFGITPGQALAAPAVFITDVNSMGLQAAQGLQFVTAFYWDRTPDSRAWAEKFFARQKAMPSMTQAGVYSAVRHYLKAVEAAKTDDAVAVAAKMRELPVRDMNIENGRVREDGQVMHDMYLVEVKKPDESRRAWDYYKVLTTVPADQAFQALADSACPLVGKQ
MGSDKIHHHHHHREEAPNAEADILSCRLPGVVMTTSPIITNNSINIFVGPGTDISSLAPEFTLTPGATIDPPSGTARDFHSPQQYTVTAADGFWKKKYTVSVIDTELATIYNFEDTLGGQKYYIFVEREGEKVVMEWASGNAGYAMTGVPKTADDYPTFQFANGKTGKCLSLVTRSTGFFGSIMGMPIAAGNLFIGSFDVGNAMSNPLKATKFGLPFRHIPTYLAGYYKYKAGDQFTEGGKPVSGKRDICDIYAIMYETSESVPTLDGTNAFTSPNLVSIARIDDAKETDEWTYFKLPFHMLSGKYIDKEKLTAGKYNVAIVFTSSLEGDHFNGAIGSTLLIDEVELIYRSED
MGSDKIHHHHHHSCNEDDGAPYPSVRLEFLTAESGADGRLQTLVTDKGERLVVAEDRTESELLPNSSSRVVSNYEVLSSVGGRKEIRIYALANTVSPVPLPAGEFRNGLKFDPVDMLSIWMGRDYLNMTLSIRAQNARHTFHFIQESVERDAVTGKLKVHLMLYHDDGGDVEAYAKRAYVSVPLRQYTSDIGESVIIYFSFHTYDGEVQTYQFEYVPSHLTINY
